# Experimental data reported in IntAct's records for PubMed 31515488.
# B1: Carboxy-terminal domain RNA polymerase II polypeptide A small phosphatase 1 (Homo sapiens), Q9GZU7 (parent)
# chain: MDSSAVITQISKEEARGPLRGKGDQKSAASQKPRSRGILHSLFCCVCRDDGEALPAHSGAPLLVEENGAIPKQTPVQYLLPEAKAQDSDKICVVIDLDETLVHSSFKPVNNADFIIPVEIDGVVHQVYVLKRPHVDEFLQRMGELFECVLFTASLAKYADPVADLLDKWGAFRARLFRESCVFHRGNYVKDLSRLGRDLRRVLILDNSPASYVFHPDNAVPVASWFDNMSDTELHDLLPFFEQLSRVDDVYSVLRQPRPGS
# B2: Microtubule-associated tumor suppressor candidate 2 (Homo sapiens), Q5JR59-3 (parent)
# chain: MGHCCCKPYNCLQCLDKTNESALVKEKELSIELANIRDEVAFHTAKCEKLQKEKEELERRFEDEVKRLGWQQQAELQELEERLQLQFEAEMARLQEEHGDQLLSIRCQHQEQVEDLTASHDAALLEMENNHTVAITILQDDHDHKVQELMSTHELEKKELEENFEKLRLSLQDQVDTLTFQSQSLRDRARRFEEALRKNTEEQLEIALAPYQHLEEDMKSLKQVLEMKNQQIHEQEKKILELEKLAEKNIILEEKIQVLQQQNEDLKARIDQNTVVTRQLSEENANLQEYVEKETQEKKRLSRTNEELLWKLQTGDPTSPIKLSPTSPVYRGSSSGPSSPARVSTTPR
# partner: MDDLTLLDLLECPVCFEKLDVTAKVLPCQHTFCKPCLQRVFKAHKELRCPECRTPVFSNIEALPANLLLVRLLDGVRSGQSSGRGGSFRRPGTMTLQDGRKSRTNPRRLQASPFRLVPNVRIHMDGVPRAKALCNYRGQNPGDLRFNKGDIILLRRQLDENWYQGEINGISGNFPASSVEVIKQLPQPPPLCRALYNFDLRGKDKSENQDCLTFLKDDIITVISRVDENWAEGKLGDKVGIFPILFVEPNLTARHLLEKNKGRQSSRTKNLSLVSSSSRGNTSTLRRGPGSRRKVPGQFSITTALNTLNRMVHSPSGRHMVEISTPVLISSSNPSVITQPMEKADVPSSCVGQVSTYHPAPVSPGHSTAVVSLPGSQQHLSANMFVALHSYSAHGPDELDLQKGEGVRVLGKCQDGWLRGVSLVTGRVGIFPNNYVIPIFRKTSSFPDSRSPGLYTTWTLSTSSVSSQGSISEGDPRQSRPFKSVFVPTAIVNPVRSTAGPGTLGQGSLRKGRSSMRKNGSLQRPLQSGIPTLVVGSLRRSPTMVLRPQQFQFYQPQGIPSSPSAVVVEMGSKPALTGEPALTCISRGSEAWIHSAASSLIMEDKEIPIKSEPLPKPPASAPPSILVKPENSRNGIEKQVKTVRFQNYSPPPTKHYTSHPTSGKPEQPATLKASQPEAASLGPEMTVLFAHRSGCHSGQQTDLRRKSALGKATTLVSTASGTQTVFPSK
# B3: Keratin-associated protein 26-1 (Homo sapiens), Q6PEX3 (parent)
# chain: MSCPNYCSGNSNSGSLRTSRHIPLTSIDLCPTSVSCGDVLYLPTSSQDHTWVTDNCQETCGEPTSCQPVHCETGNLETSCGSSTAYYVPRPCQGSSFLPASFFSSSCLPVSCRPQRYVSSGCRPLRPLLNSYQPIGDCVPNAYRPQFCLSKSCQPQNLLTSGCQPSSCLAYRPQSLHVVSSSLRPLGPLFSGCQPLTHVFSTCRPSCSGL
# partner: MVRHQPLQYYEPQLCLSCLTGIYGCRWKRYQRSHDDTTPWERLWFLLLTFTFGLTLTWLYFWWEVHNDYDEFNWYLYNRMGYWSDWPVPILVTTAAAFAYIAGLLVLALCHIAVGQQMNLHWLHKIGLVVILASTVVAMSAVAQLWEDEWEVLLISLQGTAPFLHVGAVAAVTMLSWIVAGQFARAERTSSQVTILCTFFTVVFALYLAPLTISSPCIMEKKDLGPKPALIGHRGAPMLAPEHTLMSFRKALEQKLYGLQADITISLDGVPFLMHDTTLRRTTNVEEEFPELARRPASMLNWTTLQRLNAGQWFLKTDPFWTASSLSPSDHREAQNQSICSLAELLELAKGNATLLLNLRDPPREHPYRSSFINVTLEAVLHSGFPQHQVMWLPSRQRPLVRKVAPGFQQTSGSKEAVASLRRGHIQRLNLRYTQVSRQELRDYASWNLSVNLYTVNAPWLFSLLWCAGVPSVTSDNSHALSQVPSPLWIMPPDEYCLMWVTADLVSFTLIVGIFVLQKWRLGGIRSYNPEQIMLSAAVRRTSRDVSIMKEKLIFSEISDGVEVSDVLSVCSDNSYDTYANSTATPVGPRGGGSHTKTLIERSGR
# B4: Angiomotin (Homo sapiens), Q4VCS5 (parent)
# chain: MRNSEEQPSGGTTVLQRLLQEQLRYGNPSENRSLLAIHQQATGNGPPFPSGSGNPGPQSDVLSPQDHHQQLVAHAARQEPQGQEIQSENLIMEKQLSPRMQNNEELPTYEEAKVQSQYFRGQQHASVGAAFYVTGVTNQKMRTEGRPSVQRLNPGKMHQDEGLRDLKQGHVRSLSERLMQMSLATSGVKAHPPVTSAPLSPPQPNDLYKNPTSSSEFYKAQGPLPNQHSLKGMEHRGPPPEYPFKGMPPQSVVCKPQEPGHFYSEHRLNQPGRTEGQLMRYQHPPEYGAARPAQDISLPLSARNSQPHSPTSSLTSGGSLPLLQSPPSTRLSPARHPLVPNQGDHSAHLPRPQQHFLPNQAHQGDHYRLSQPGLSQQQQQQQQQHHHHHHHQQQQQQQPQQQPGEAYSAMPRAQPSSASYQPVPADPFAIVSRAQQMVEILSDENRNLRQELEGCYEKVARLQKVETEIQRVSEAYENLVKSSSKREALEKAMRNKLEGEIRRMHDFNRDLRERLETANKQLAEKEYEGSEDTRKTISQLFAKNKESQREKEKLEAELATARSTNEDQRRHIEIRDQALSNAQAKVVKLEEELKKKQVYVDKVEKMQQALVQLQAACEKREQLEHRLRTRLERELESLRIQQRQGNCQPTNVSEYNAAALMELLREKEERILALEADMTKWEQKYLEENVMRHFALDAAATVAAQRDTTVISHSPNTSYDTALEARIQKEEEEILMANKRCLDMEGRIKTLHAQIIEKDAMIKVLQQRSRKEPSKTEQLSCMRPAKSLMSISNAGSGLLSHSSTLTGSPIMEEKRDDKSWKGSLGILLGGDYRAEYVPSTPSPVPPSTPLLSAHSKTGSRDCSTQTERGTESNKTAAVAPISVPAPVAAAATAAAITATAATITTTMVAAAPVAVAAAAAPAAAAAPSPATAAATAAAVSPAAAGQIPAAASVASAAAVAPSAAAAAAVQVAPAAPAPVPAPALVPVPAPAAAQASAPAQTQAPTSAPAVAPTPAPTPTPAVAQAEVPASPATGPGPHRLSIPSLTCNPDKTDGPVFHSNTLERKTPIQILGQEPDAEMVEYLI
# partner: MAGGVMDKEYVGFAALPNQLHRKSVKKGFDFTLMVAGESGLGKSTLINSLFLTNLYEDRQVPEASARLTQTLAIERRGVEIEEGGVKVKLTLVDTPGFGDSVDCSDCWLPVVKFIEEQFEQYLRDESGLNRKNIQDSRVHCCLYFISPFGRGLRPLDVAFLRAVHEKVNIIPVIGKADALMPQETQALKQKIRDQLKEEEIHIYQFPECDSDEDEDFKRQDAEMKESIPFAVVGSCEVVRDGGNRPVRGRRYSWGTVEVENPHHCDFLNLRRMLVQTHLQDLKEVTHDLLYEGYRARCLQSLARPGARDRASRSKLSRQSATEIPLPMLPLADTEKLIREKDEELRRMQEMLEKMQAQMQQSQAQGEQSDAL
# B5: THAP domain-containing protein 7 (Homo sapiens), Q9BT49 (parent)
# chain: MPRHCSAAGCCTRDTRETRNRGISFHRLPKKDNPRRGLWLANCQRLDPSGQGLWDPASEYIYFCSKHFEEDCFELVGISGYHRLKEGAVPTIFESFSKLRRTTKTKGHSYPPGPAEVSRLRRCRKRCSEGRGPTTPFSPPPPADVTCFPVEEASAPATLPASPAGRLEPGLSSPFSDLLGPLGAQADEAGCSAQPSPERQPSPLEPRPVSPSAYMLRLPPPAGAYIQNEHSYQVGSALLWKRRAEAALDALDKAQRQLQACKRREQRLRLRLTKLQQERAREKRAQADARQTLKEHVQDFAMQLSSSMA
# partner: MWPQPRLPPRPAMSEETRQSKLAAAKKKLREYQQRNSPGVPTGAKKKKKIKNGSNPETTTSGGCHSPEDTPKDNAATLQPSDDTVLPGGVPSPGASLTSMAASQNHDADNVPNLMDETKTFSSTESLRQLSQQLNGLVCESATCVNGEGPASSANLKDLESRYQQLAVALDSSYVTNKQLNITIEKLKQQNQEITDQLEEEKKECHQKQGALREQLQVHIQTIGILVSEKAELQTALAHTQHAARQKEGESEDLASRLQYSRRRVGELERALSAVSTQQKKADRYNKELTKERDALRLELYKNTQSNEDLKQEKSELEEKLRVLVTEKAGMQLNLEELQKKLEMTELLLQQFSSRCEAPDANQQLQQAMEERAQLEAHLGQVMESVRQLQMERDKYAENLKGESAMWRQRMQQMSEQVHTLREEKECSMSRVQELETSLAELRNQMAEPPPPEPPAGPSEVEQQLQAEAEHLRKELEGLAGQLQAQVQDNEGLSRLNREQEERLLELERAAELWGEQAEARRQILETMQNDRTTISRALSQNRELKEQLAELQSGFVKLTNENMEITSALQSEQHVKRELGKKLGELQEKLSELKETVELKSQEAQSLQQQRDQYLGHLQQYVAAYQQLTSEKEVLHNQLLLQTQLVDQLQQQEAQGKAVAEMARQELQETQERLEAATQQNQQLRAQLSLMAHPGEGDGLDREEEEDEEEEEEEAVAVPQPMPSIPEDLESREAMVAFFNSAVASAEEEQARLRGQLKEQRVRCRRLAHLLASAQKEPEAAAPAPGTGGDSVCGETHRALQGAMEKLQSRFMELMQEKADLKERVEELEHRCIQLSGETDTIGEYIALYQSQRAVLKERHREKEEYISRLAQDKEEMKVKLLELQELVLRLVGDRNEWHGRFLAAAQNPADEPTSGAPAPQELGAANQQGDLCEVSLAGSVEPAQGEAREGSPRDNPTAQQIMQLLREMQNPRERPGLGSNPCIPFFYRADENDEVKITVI
# Variants of: B1
# Conditions: with mbp_human MBP
row,Variant,effect of a mutation on the interaction
1,A56T,with no effect

# Variants of: B2
# Conditions: with sh3r2_human SH3RF2, Q8TEC5
row,Variant,effect of a mutation on the interaction
1,A89V,with no effect

# Variants of: B3
# Conditions: with gdpd5_human GDPD5, Q8WTR4
row,Variant,effect of a mutation on the interaction
1,S26Y,with no effect

# Variants of: B4
# Conditions: with sept1_human SEPTIN1, Q8WYJ6
row,Variant,effect of a mutation on the interaction
1,T899A,with no effect

# Variants of: B5
# Conditions: with goga2_human GOLGA2, Q08379
row,Variant,effect of a mutation on the interaction
1,E168D,with no effect
